Numbering of substitutions follows the chain as printed. In names and notes the source's numbering stands. Each block holds one binder with its values, some of them ahead of it.
Assays:
GPRC5D on MM.1S cells [1] = target: T1, GPRC5D on MM.1S cells (human, UniProt Q9NZD1 1-345); experiment: FACS on MM.1S cells
T1 construct: whole, on cells; MM.1S is called a GPRC5D positive expressed cell line and human multiple myeloma cells; also called G-protein coupled receptor family C group 5 member D
Procedure: (§1) The binding affinities of the generated humanized Fab-scFv-Fab bispecific antibodies were determined by FACS analysis. […] (a) Jurkat cells were washed by Staining Buffer (PBS+1% BSA) in round bottom 96-well plate. [0833] (b) Antibody dilutions and cells were added to each well, incubated at 4 degrees for 1 hour. [0834] (c) Cells were spined down at 300 g for 3 minutes, and the supernatants were discarded. [0835] (d) Cells were washed with Staining Buffer. […] (e) Step (d) was repeated and the cells were incubated for 0.5 hours at 4 degrees with secondary antibody in Staining Buffer. [0837] (f) After incubation, step (d)-(e) were repeated. […] (g) Staining Buffer was added and fluorescence signals were recorded by flow cytometry.
The binding affinities of the generated humanized Fab-scFv-Fab bispecific antibodies were determined by FACS analysis. The ATG-Bis-40E9 was used as positive control and hIgG1 isotype was used as negative control. The protocol for FACS analysis is identical to that described in Example 3.2, except that MM.1S cells were used in this example.

CD3 on Jurkat cells [2] = target: T2, CD3 on Jurkat cells (UniProt P07766 23-207; P04234 22-171; P09693 23-182); experiment: FACS on Jurkat cells
T2 construct: whole, on cells; On the cell, CD3 stands in the TCR-CD3 complex; also called cluster of differentiation 3
Procedure: as §1
The binding affinities of the generated humanized Fab-scFv-Fab bispecific antibodies were determined by FACS analysis. The ATG-Bis-40E9 described in Example 1 was used as positive control and hIgG1 isotype was used as negative control. The protocol for FACS analysis is described in Example 3.2 above.

GPRC5D on MM.1S cells [3] = target: T1, GPRC5D on MM.1S cells; experiment: cell-based or functional assay
GPRC5D on MM.1S cells [4] = target: T1, GPRC5D on MM.1S cells; experiment: cell-based or functional assay; remark: listed apart in the source
[5] = target: T3, CD3 on T cells / Jurkat cells (human, UniProt P07766 23-207; P04234 22-171; P09693 23-182); experiment: FACS on Jurkat cells expressing CD3
T3 construct: whole, on cells; Native CD3 complex on CD3+ T cells isolated from normal donors or on Jurkat cells; also called human CD3; CD3+ T cells

CD20 on DoHH2 cells = target: T4, CD20 on DoHH2 cells (human, UniProt P11836 1-297); experiment: FACS on DoHH2 cells expressing CD20 (FIG. 45E)
T4 construct: whole, on cells; Endogenous CD20 on the human DoHH2 cell line; also called DoHH2 cells expressing CD20
T4 sequence (looked up): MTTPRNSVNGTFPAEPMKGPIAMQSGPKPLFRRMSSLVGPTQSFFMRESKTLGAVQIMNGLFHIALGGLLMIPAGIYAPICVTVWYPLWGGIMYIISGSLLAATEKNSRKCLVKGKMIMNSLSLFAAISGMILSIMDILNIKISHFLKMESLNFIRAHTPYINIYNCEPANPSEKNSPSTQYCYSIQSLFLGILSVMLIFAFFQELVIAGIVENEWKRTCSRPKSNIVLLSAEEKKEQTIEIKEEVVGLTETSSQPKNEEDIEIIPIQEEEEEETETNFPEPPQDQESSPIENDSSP

GPRC5D on MM.1S cells [6] = target: T1, GPRC5D on MM.1S cells; experiment: FACS on MM.1S cells; remark: listed apart in the source
Procedure: To evaluate the binding affinity of the generated chimeric bispecific antibody to T cells, the isolated CD3⁺ T cells were stained by antibodies and the binding affinity was determined by FACS analysis. The protocol of FACS analysis is described as follows: [0785] (a) CD3⁺ T cells were isolated from normal donors. [0786] (b) The isolated CD3⁺ T cells were washed by Staining Buffer (PBS+1% BSA) in round bottom 96-well plate. […] (c) Antibody dilutions were added to each well and mixed with the CD3+ T cells, incubated at 4 degrees for 1 hour. […] (d) Cells were spined at 300 g for 3 minutes, then the supernatants were discarded. [0789] (e) Cells were washed with Staining Buffer. [0790] (f) Step (d) was repeated, and the cells were incubated with secondary antibody in Staining Buffer for 0.5 hours at 4 degrees. [0791] (g) After incubation, step (d)-(e) were repeated. [0792] (h) Cells were resuspended in Staining Buffer and fluorescence signals were recorded by flow cytometry.
The binding affinities of the generated humanized Fab-scFv-Fab bispecific antibodies to MM.1S were evaluated by FACS analysis. The protocol for FACS analysis is identical to that described in Example 1.2, except that MM.1S were used in this example.

CD3 on Jurkat cells [7] = target: T2, CD3 on Jurkat cells; experiment: FACS on Jurkat cells; remark: listed apart in the source
Procedure: as §1
The binding affinities of the generated humanized Fab-scFv-Fab bispecific antibodies were determined by FACS analysis. The protocol for FACS analysis is identical to that described in Example 3.2, except that different test antibodies were used.

GPRC5D on MM.1S cells [8] = target: T1, GPRC5D on MM.1S cells; experiment: cell-based or functional assay; remark: listed apart in the source
GPRC5D on MM.1S cells [9] = target: T1, GPRC5D on MM.1S cells; experiment: cell-based or functional assay; remark: listed apart in the source

T1 sequence (Q9NZD1 whole entry): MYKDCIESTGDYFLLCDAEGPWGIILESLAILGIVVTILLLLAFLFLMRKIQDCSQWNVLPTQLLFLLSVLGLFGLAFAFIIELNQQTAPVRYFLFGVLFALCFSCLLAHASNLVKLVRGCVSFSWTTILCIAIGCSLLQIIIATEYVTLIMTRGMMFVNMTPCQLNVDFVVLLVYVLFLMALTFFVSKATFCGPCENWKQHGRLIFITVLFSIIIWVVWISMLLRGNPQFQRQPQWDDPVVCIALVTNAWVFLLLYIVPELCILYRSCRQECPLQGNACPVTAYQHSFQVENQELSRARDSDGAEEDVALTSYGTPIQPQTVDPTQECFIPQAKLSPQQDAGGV
T2 sequence (P07766 23-207, chain 1 of 3): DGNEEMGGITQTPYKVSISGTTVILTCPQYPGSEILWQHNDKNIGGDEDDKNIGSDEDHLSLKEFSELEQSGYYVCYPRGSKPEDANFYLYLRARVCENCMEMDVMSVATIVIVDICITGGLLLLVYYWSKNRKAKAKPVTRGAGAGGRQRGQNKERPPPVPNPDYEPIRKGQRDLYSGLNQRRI
T2 sequence (P04234 22-171, chain 2 of 3): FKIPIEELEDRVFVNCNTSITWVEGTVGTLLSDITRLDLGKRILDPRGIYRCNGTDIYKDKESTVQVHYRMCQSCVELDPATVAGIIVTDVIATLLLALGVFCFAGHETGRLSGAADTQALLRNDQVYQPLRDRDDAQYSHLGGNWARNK
T2 sequence (P09693 23-182, chain 3 of 3): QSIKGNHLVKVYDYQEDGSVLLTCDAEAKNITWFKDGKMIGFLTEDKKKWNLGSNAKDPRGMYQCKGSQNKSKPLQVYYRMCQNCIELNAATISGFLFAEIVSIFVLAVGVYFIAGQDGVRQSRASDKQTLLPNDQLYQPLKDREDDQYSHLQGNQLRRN
T3 sequence (P07766 23-207, chain 1 of 3): as the sequence (P07766 23-207, chain 1 of 3) above
T3 sequence (P04234 22-171, chain 2 of 3): as the sequence (P04234 22-171, chain 2 of 3) above
T3 sequence (P09693 23-182, chain 3 of 3): as the sequence (P09693 23-182, chain 3 of 3) above

B3: Bis-108+147-S32T.L (bispecific antibody)
chain 1: EVQLVQSGAEVKKPGASVKVSCKASGYTFTSYVIHWVRQAPGQGLEWMGYFNPYNDGTKYNEEFKGRVTLTSDKSTSTAYMELRSLRSDDTAVYYCARGGVRRYFDVWGQGTTVTVSS
chain 2: EVQLVQSGAEVKKPGSSVKVSCKASGYTFTSYWMHWVRQAPGQCLEWMGNINPSSGATNYNEKFKSRVTLTVDKSTSTAYMELSSLRSEDTAVYYCARDRSSQYYFDYWGQGTTVTVSSGGGGSGGGGSGGGGSGGGGSDIVMTQSPDSLAVSLGERATINCKSSQSLLNTRSRKNYLAWYQQKPGQPPKLLIYWASTRESGVPDRFSGSGSGTDFTLTISSLQAEDVAVYYCTQSYTLRTFGCGTKVEIK
chain 3: DIQMTQSPSSLSASVGDRVTITCRASQDIGSNLNWLQQKPGKAIKRLIYATFGLDSGVPSRFSGSRSGTDFTLTISSLQPEDFATYYCQQYASFPYTFGGGTKVEIK
EC50 (GPRC5D on MM.1S cells [1]): 2 nM
Top signal (GPRC5D on MM.1S cells [1]): 2040 MFI
Top signal (CD3 on Jurkat cells [2]): 158 MFI
IC50 of T-cell dependent cytotoxicity on MM.1S cells (GPRC5D on MM.1S cells [3]): 4.76 nM
Top (%) target cell killing, MM.1S cells (GPRC5D on MM.1S cells [3]): 166%
EC50, Jurkat-NFAT-Luciferase assay in the presence of MM.1S cells (GPRC5D on MM.1S cells [4]): 0.22 nM
Top RLU, Jurkat-NFAT-Luciferase assay in the presence of MM.1S cells (GPRC5D on MM.1S cells [4]): 380 RLU

B4: ATG201-Y101F-20R (bispecific antibody, human IgG1, kappa, L234A L235A)
heavy 1: not shown
heavy 2: QVQLQQPGAELVKPGASVKMSCKASGYTFTSYNMHWVKQTPGRGLEWIGAIYPGNGDTSYNQKFKGKATLTADKSSSTAYMQLSSLTSEDSAVYYCARSTYYGGDWYFNVWGAGTTVTVSAASTKGPSVFPLAPSSKSTSGGTAALGCLVKDYFPEPVTVSWNSGALTSGVHTFPAVLQSSGLYSLSSVVTVPSSSLGTQTYICNVNHKPSNTKVDKKVEPKSCGGGGSGGGGSEVQLVQSGAEVKKPGSSVKVSCKASGYTFSSYVIHWVRQAPGQCLEWMGYINPYNDVIKYNEKFKGRVTLTSDKSTSTAYMELSSLRSEDTAVYYCARDSFYSYDGFAYWGQGTLVTVSSGGGGSGGGGSGGGGSGGGGSEIVLTQSPDFQSVTPKEKVTITCSASSSVSYMHWYQQKPDQSPKRLIYDTSKLASGVPSRFSGSGSGTDFTLTINSLEAEDAATYYCQQWSSNPPTFGCGTKVEIKGGGGSGGGGSDKTHTCPPCPAPEAAGGPSVFLFPPKPKDTLMISRTPEVTCVVVDVSHEDPEVKFNWYVDGVEVHNAKTKPREEQYNSTYRVVSVLTVLHQDWLNGKEYKCKVSNKALPAPIEKTISKAKGQPREPQVCTLPPSREEMTKNQVSLSCAVKGFYPSDIAVEWESNGQPENNYKTTPPVLDSDGSFFLVSKLTVDKSRWQQGNVFSCSVMHEALHNHYTQKSLSLSPGK
light: QIVLSQSPAILSASPGEKVTMTCRASSSVSYIHWFQQKPGSSPKPWIYATSNLASGVPVRFSGSGSGTSYSLTISRVEAEDAATYYCQQWTSNPPTFGGGTKLEIKRTVAAPSVFIFPPSDEQLKSGTASVVCLLNNFYPREAKVQWKVDNALQSGNSQESVTEQDSKDSTYSLSSTLTLSKADYEKHKVYACEVTHQGLSSPVTKSFNRGEC
notes: CD20xCD3 Fab-scFv-Fab: two C20R Fabs, anti-CD3 scFv 40E9-L2H3-Y101F.H; L234A/L235A
binding result [5]: binds
EC50 (CD20 on DoHH2 cells): 4.05 nM

B5: ATG201-N55S-20R (bispecific antibody, human IgG1, kappa, L234A L235A)
heavy 1: not shown
heavy 2: B4 heavy 2 with N289S, F335Y
light: B4 light
notes: CD20xCD3 Fab-scFv-Fab: two C20R Fabs, anti-CD3 scFv 40E9-L2H3-N55S.H; L234A/L235A
binding result [5]: binds
EC50 (CD20 on DoHH2 cells): 3.13 nM

B6: ATG-Bis-40E9 (bispecific antibody)
heavy: EVQLQQSGPELVKPGASVKMSCKASGYTFTSYVIHWVKQKTGQGLEWIGYFNPYNDGTKYNEEFKGKATLTSDKSSNTAYMELNSLTSDDSAVYFCARGGVRRYFDVWGAGTTVTVSS
heavy (part 1 of 2): B6 heavy
heavy (part 2 of 2): GGGGSGGGGSEVQLQLSGPELVKPGASVKMSCKASGYTFSSYVIHWVKQKPGQGLEWIGYINPYNDVIKYNEKFKGKATLTSDKSSSTAYMELSSLTSEDSAVYYCARDSYYSYDGFAYWGQGTLVTVSAGGGGSGGGGSGGGGSGGGGSQIVLTQSPAIMSASPGEKVTMTCSASSSVSYMHWYQQKSGTSPKRWIYDTSKLASGVPARFSGSGSGTSYSLTISSMEAEDAATYYCQQWSSNPPTFGGGTKVEIKGGGGSGGGGS
light: DIQMTQSPSSLSASLGERVSLTCRASQDIGSNLNWLQQEPDGTIKRLIYATFGLDSGVPKRFSGSRSGSDYSLTISSLESEDFVDYYCQQYASFPYTFGGGTKLEIK
notes: Fab-scFv-Fab format: two anti-GPRC5D Fab domains and one anti-CD3 scFv; LALA mutations; also called chimeric 2+1 bispecific antibody; parental antibody control; not shown: CH1; CL; CH1-hinge-CH2-CH3 with L234A, L235A; CH2-CH3 with L234A, L235A
EC50 (GPRC5D on MM.1S cells [1]): 2.43 nM
Top signal (GPRC5D on MM.1S cells [1]): 1880 MFI
Ratio of EC50 (relative to ATG-Bis-40E9) (GPRC5D on MM.1S cells [6]): 1 ratio
Ratio of Top MFI (relative to ATG-Bis-40E9) (GPRC5D on MM.1S cells [6]): 1 ratio
EC50 (CD3 on Jurkat cells [2]): 74.7 nM
Ratio of EC50 (relative to ATG-Bis-40E9) (CD3 on Jurkat cells [7]): 1 ratio
Ratio of Top MFI (relative to ATG-Bis-40E9) (CD3 on Jurkat cells [7]): 1 ratio
IC50 of T-cell dependent cytotoxicity on MM.1S cells (GPRC5D on MM.1S cells [3]): 0.00063 nM
Top (%) target cell killing, MM.1S cells (GPRC5D on MM.1S cells [3]): 99.2%
EC50, Jurkat-NFAT-Luciferase assay in the presence of MM.1S cells (GPRC5D on MM.1S cells [4]): 0.011 nM
Top RLU, Jurkat-NFAT-Luciferase assay in the presence of MM.1S cells (GPRC5D on MM.1S cells [4]): 564 RLU
Ratio of IC50 (relative to ATG-Bis-40E9), MM.1S cytotoxicity (GPRC5D on MM.1S cells [8]): 1 ratio
Ratio of Top cytotoxicity (relative to ATG-Bis-40E9), MM.1S cytotoxicity (GPRC5D on MM.1S cells [8]): 1 ratio
Ratio of EC50 (relative to ATG-Bis-40E9), luciferase assay on MM.1S (GPRC5D on MM.1S cells [9]): 1 ratio
Ratio of Top RLU (relative to ATG-Bis-40E9), luciferase assay on MM.1S (GPRC5D on MM.1S cells [9]): 1 ratio

More lines, main results first:

EC50 (GPRC5D on MM.1S cells [1]): 1.29 nM
Top signal (GPRC5D on MM.1S cells [1]): 1820 MFI
Top signal (CD3 on Jurkat cells [2]): 141 MFI
EC50, Jurkat-NFAT-Luciferase assay in the presence of MM.1S cells (GPRC5D on MM.1S cells [4]): 0.26 nM
Top RLU, Jurkat-NFAT-Luciferase assay in the presence of MM.1S cells (GPRC5D on MM.1S cells [4]): 358 RLU
B1: Bis-108+147-S102Q.H (bispecific antibody)
chain 1: B3 chain 1
chain 2: B3 chain 2 with S102Q, T171S
chain 3: B3 chain 3
IC50 of T-cell dependent cytotoxicity on MM.1S cells (GPRC5D on MM.1S cells [3]): 2.78 nM
Top (%) target cell killing, MM.1S cells (GPRC5D on MM.1S cells [3]): 131%

EC50 (GPRC5D on MM.1S cells [1]): 1.87 nM
Top signal (GPRC5D on MM.1S cells [1]): 1830 MFI
Top signal (CD3 on Jurkat cells [2]): 50.9 MFI
EC50, Jurkat-NFAT-Luciferase assay in the presence of MM.1S cells (GPRC5D on MM.1S cells [4]): 0.98 nM
Top RLU, Jurkat-NFAT-Luciferase assay in the presence of MM.1S cells (GPRC5D on MM.1S cells [4]): 39.2 RLU
B2: Bis-108+147-R100Q.H (bispecific antibody)
chain 1: B3 chain 1
chain 2: B3 chain 2 with R100Q, T171S
chain 3: B3 chain 3
IC50 of T-cell dependent cytotoxicity on MM.1S cells (GPRC5D on MM.1S cells [3]): 7.53 nM
Top (%) target cell killing, MM.1S cells (GPRC5D on MM.1S cells [3]): 46.3%

From patent US20260193348A1 (ANTENGENE BIOLOGICS, published 2026)
